From PMC6610660 (Structure (London, England : 1993), 2019)
Each block holds one molecule with its values, some of them ahead of it.

Tests used:
[1] = target: T1, SpNatA (Schizosaccharomyces pombe, UniProt O74985+Q9UTI3); experiment: ITC; type: binding; conditions: 20 °C, pH 7.0, 200 mM NaCl, 1 mM DTT; Naa10 site
T1 sequence (Q9UTI3 1-156): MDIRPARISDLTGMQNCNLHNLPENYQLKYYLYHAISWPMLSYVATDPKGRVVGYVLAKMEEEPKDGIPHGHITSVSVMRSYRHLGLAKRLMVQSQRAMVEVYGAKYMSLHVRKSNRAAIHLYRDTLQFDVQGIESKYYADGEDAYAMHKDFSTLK
T1 sequence (O74985 1-729): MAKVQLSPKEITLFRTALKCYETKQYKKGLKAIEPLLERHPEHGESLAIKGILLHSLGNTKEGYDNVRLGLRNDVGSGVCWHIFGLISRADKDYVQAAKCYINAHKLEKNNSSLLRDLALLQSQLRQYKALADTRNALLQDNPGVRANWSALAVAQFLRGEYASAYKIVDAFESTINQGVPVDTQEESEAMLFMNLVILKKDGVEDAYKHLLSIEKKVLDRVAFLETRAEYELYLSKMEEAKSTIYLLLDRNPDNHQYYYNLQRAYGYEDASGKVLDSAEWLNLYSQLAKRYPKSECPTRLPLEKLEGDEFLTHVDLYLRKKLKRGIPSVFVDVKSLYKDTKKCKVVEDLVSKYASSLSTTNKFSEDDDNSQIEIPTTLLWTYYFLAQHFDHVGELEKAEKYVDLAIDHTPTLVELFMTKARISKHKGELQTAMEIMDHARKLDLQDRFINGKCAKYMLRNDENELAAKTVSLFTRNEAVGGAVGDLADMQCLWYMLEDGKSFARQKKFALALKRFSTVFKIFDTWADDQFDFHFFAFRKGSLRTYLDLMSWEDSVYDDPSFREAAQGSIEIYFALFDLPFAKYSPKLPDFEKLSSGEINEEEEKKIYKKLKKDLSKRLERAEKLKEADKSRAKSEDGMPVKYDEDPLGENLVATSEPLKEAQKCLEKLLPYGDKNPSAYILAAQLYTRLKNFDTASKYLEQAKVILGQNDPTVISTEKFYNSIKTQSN

[2] = target: GST-ScNaa50 (Saccharomyces cerevisiae, UniProt Q08689); experiment: ITC; type: binding; conditions: 20 °C, pH 7.0, 200 mM NaCl, 1 mM DTT; GST fusion, free GST negative
Chain of GST-ScNaa50 (Q08689 whole entry, the tested form may be a part): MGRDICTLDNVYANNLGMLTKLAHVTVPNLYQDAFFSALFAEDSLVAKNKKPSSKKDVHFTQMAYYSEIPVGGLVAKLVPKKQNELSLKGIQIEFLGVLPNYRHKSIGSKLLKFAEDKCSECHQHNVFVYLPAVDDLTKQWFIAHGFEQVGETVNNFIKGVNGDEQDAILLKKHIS

[3] = target: ScNatA/Naa50 (Saccharomyces cerevisiae, UniProt P07347+P12945+Q08689); experiment: X-ray crystal structure, […] Å; type: binding; conditions: site between Naa10 and Naa15
Chain of ScNatA/Naa50 (Q08689 whole entry, one chain of several): as the sequence (Q08689 whole entry, the tested form may be a part) above

[4] = target: T2, human Naa50 (human, UniProt Q9GZZ1 1-169); experiment: differential scanning fluorimetry
T2 sequence: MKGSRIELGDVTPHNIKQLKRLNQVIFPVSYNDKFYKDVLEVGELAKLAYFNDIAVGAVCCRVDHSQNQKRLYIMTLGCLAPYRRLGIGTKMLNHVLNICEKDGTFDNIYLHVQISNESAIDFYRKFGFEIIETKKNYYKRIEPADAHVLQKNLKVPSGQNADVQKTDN

[5] = target: Schizosaccharomyces pombe Naa50 (S. pombe); experiment: differential scanning fluorimetry
[6] = target: Schizosaccharomyces pombe Naa50 labeled with Fluorescein-5-Maleimide (S. pombe); experiment: fluorescence polarisation

Molecule: CC(=O)SCCNC(=O)CCNC(=O)[C@H](O)C(C)(C)COP(=O)(O)OP(=O)(O)OC[C@H]1O[C@@H](n2cnc3c(N)ncnc32)[C@H](O)[C@@H]1OP(=O)(O)O [acetyl-CoA]
dissociation constant [1]: Representative ITC curve of acetyl-CoA titrated into SpNatA. The calculated dissociation constant is indicated | ITC [2]: binding signal was detected by ITC between GST-ScNaa50 and acetyl-CoA

Molecule: O=P(O)(O)O[C@H]1[C@H](OP(=O)(O)O)[C@@H](OP(=O)(O)O)[C@H](OP(=O)(O)O)[C@@H](OP(=O)(O)O)[C@H]1OP(=O)(O)O [IP6]
X-ray crystal structure, 2.7 Å [3]: Clear electron density for IP6 was visible between Naa10 and Naa15

B1: human NatA (hNaa15/hNaa10 complex), wild type (complex)
chain 1: MPAVSLPPKENALFKRILRCYEHKQYRNGLKFCKQILSNPKFAEHGETLAMKGLTLNCLGKKEEAYELVRRGLRNDLKSHVCWHVYGLLQRSDKKYDEAIKCYRNALKWDKDNLQILRDLSLLQIQMRDLEGYRETRYQLLQLRPAQRASWIGYAIAYHLLEDYEMAAKILEEFRKTQQTSPDKVDYEYSELLLYQNQVLREAGLYREALEHLCTYEKQICDKLAVEETKGELLLQLCRLEDAADVYRGLQERNPENWAYYKGLEKALKPANMLERLKIYEEAWTKYPRGLVPRRLPLNFLSGEKFKECLDKFLRMNFSKGCPPVFNTLRSLYKDKEKVAIIEELVVGYETSLKSCRLFNPNDDGKEEPPTTLLWVQYYLAQHYDKIGQPSIALEYINTAIESTPTLIELFLVKAKIYKHAGNIKEAARWMDEAQALDTADRFINSKCAKYMLKANLIKEAEEMCSKFTREGTSAVENLNEMQCMWFQTECAQAYKAMNKFGEALKKCHEIERHFIEITDDQFDFHTYCMRKITLRSYVDLLKLEDVLRQHPFYFKAARIAIEIYLKLHDNPLTDENKEHEADTANMSDKELKKLRNKQRRAQKKAQIEEEKKNAEKEKQQRNQKKKKDDDDEEIGGPKEELIPEKLAKVETPLEEAIKFLTPLKNLVKNKIETHLFAFEIYFRKEKFLLMLQSVKRAFAIDSSHPWLHECMIRLFNTAVCESKDLSDTVRTVLKQEMNRLFGATNPKNFNETFLKRNSDSLPHRLSAAKMVYYLDPSSQKRAIELATTLDESLTNRNLQTCMEVLEALYDGSLGDCKEAAEIYRANCHKLFPYALAFMPPGYEEDMKITVNGDSSAEAEELANEI
chain 2: MNIRNARPEDLMNMQHCNLLCLPENYQMKYYFYHGLSWPQLSYIAEDENGKIVGYVLAKMEEDPDDVPHGHITSLAVKRSHRRLGLAQKLMDQASRAMIENFNAKYVSLHVRKSNRAALHLYSNTLNFQISEVEPKYYADGEDAYAMKRDLTQMADELRRHLELKEKGRHVVLGAIENKVESKGNSPPSSGEACREEKGLAAEDSGGDSKDLSEVSETTESTDVKDSSEASDSAS
melting temperature of NatA with Naa50 added (NatA alone 44 °C) [4]: 46.6 °C

melting temperature of NatA with Naa50 added (NatA alone 37.8 °C) [5]: 40.4 °C | Kd [6]: 17 nM
B2: Schizosaccharomyces pombe NatA (SpNaa15/SpNaa10 complex), wild type (complex)
chain 1: MAKVQLSPKEITLFRTALKCYETKQYKKGLKAIEPLLERHPEHGESLAIKGILLHSLGNTKEGYDNVRLGLRNDVGSGVCWHIFGLISRADKDYVQAAKCYINAHKLEKNNSSLLRDLALLQSQLRQYKALADTRNALLQDNPGVRANWSALAVAQFLRGEYASAYKIVDAFESTINQGVPVDTQEESEAMLFMNLVILKKDGVEDAYKHLLSIEKKVLDRVAFLETRAEYELYLSKMEEAKSTIYLLLDRNPDNHQYYYNLQRAYGYEDASGKVLDSAEWLNLYSQLAKRYPKSECPTRLPLEKLEGDEFLTHVDLYLRKKLKRGIPSVFVDVKSLYKDTKKCKVVEDLVSKYASSLSTTNKFSEDDDNSQIEIPTTLLWTYYFLAQHFDHVGELEKAEKYVDLAIDHTPTLVELFMTKARISKHKGELQTAMEIMDHARKLDLQDRFINGKCAKYMLRNDENELAAKTVSLFTRNEAVGGAVGDLADMQCLWYMLEDGKSFARQKKFALALKRFSTVFKIFDTWADDQFDFHFFAFRKGSLRTYLDLMSWEDSVYDDPSFREAAQGSIEIYFALFDLPFAKYSPKLPDFEKLSSGEINEEEEKKIYKKLKKDLSKRLERAEKLKEADKSRAKSEDGMPVKYDEDPLGENLVATSEPLKEAQKCLEKLLPYGDKNPSAYILAAQLYTRLKNFDTASKYLEQAKVILGQNDPTVISTEKFYNSIKTQSN
chain 2: MDIRPARISDLTGMQNCNLHNLPENYQLKYYLYHAISWPMLSYVATDPKGRVVGYVLAKMEEEPKDGIPHGHITSVSVMRSYRHLGLAKRLMVQSQRAMVEVYGAKYMSLHVRKSNRAAIHLYRDTLQFDVQGIESKYYADGEDAYAMHKDFSTLK

increase of the melting temperature of NatA on addition of Naa50 [5]: 7.4 °C
B3: Saccharomyces cerevisiae NatA (ScNaa15/ScNaa10 complex), wild type (complex)
chain 1: MSRKRSTKPKPAAKIALKKENDQFLEALKLYEGKQYKKSLKLLDAILKKDGSHVDSLALKGLDLYSVGEKDDAASYVANAIRKIEGASASPICCHVLGIYMRNTKEYKESIKWFTAALNNGSTNKQIYRDLATLQSQIGDFKNALVSRKKYWEAFLGYRANWTSLAVAQDVNGERQQAINTLSQFEKLAEGKISDSEKYEHSECLMYKNDIMYKAASDNQDKLQNVLKHLNDIEPCVFDKFGLLERKATIYMKLGQLKDASIVYRTLIKRNPDNFKYYKLLEVSLGIQGDNKLKKALYGKLEQFYPRCEPPKFIPLTFLQDKEELSKKLREYVLPQLERGVPATFSNVKPLYQRRKSKVSPLLEKIVLDYLSGLDPTQDPIPFIWTNYYLSQHFLFLKDFPKAQEYIDAALDHTPTLVEFYILKARILKHLGLMDTAAGILEEGRQLDLQDRFINCKTVKYFLRANNIDKAVEVASLFTKNDDSVNGIKDLHLVEASWFIVEQAEAYYRLYLDRKKKLDDLASLKKEVESDKSEQIANDIKENQWLVRKYKGLALKRFNAIPKFYKQFEDDQLDFHSYCMRKGTPRAYLEMLEWGKALYTKPMYVRAMKEASKLYFQMHDDRLKRKSDSLDENSDEIQNNGQNSSSQKKKAKKEAAAMNKRKETEAKSVAAYPSDQDNDVFGEKLIETSTPMEDFATEFYNNYSMQVREDERDYILDFEFNYRIGKLALCFASLNKFAKRFGTTSGLFGSMAIVLLHATRNDTPFDPILKKVVTKSLEKEYSENFPLNEISNNSFDWLNFYQEKFGKNDINGLLFLYRYRDDVPIGSSNLKEMIISSLSPLEPHSQNEILQYYL
chain 2: MPINIRRATINDIICMQNANLHNLPENYMMKYYMYHILSWPEASFVATTTTLDCEDSDEQDENDKLELTLDGTNDGRTIKLDPTYLAPGEKLVGYVLVKMNDDPDQQNEPPNGHITSLSVMRTYRRMGIAENLMRQALFALREVHQAEYVSLHVRQSNRAALHLYRDTLAFEVLSIEKSYYQDGEDAYAMKKVLKLEELQISNFTHRRLKENEEKLEDDLESDLLE
